For one protein, Km, Vmax and Vmax/Km results are on record in paper PMC9306000.

As usually defined, the Km is the substrate concentration at which the rate is half of its maximum. By Vmax is commonly meant the top rate of the reaction or transport when substrate is in excess.

Substrate in the series: CC(C)=C[C@@H]1[C@@H](C(=O)SCCNC(=O)CCNC(=O)[C@H](O)C(C)(C)COP(=O)(O)OP(=O)(O)OC[C@H]2O[C@@H](n3cnc4c(N)ncnc43)[C@H](O)[C@@H]2OP(=O)(O)O)C1(C)C
In words: purified protein. Conditions: 1 mM (S)-pyrethrolone, 50 mM Tris-HCl pH 7.5, 25 °C, 10 min.

B1: TcGLIP (Tanacetum cinerariifolium) (protein)
chain: SQQAAALFIFGDSVFDPGNNNHINTHVNFKANFWPYGQSYFSSPTGRFSDGRIIPDFIAEYASLPIIPAYLEPNNDFTHGANFASAGAGALIASHAGLAVGLQTQLRYFGDLVDHYRQNLGDIKSRQLLSDAVYLFSCGGNDYQSPYYPYTQEQYVDIVIGNMTNVIKGIYEKGGRKFGVVNVPLIGCWPGMRAKQPGNTCNTEVDELTRLHNQAFAKRLEQLEKQLEGFVYAKFDLSTAILNRMKNPSKYGFKEGESACCGSGPFGGNYDCGRIKEFGLCDNATEYFFFDPFHPNELASRQFAEMFWDGDSMVTQPYNLKALFEGKPSTKYLPNDEL
For B1, the Km is 520 ± 95 µM, the maximum rate (Vmax) turned out to be 0.14 µmol/min/mg and the Vmax/Km was found to be 269 µL/min/mg.
